T1: cynomolgus monkey ST2 antigen (Cyno-ST2-his, Sino biological, 90915-C08H) (cynomolgus monkey, UniProt Q01638 19-328 (human entry))
T1 construct: Bought protein; not shown: his tag
T1 chain: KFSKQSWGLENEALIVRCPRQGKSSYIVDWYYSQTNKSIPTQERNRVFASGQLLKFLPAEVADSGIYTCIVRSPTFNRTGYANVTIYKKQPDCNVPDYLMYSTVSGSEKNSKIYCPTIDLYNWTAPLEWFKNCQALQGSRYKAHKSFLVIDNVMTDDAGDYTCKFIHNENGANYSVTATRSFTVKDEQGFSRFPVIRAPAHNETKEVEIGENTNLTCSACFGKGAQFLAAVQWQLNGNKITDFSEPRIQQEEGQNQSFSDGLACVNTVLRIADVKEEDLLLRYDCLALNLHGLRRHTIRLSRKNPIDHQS

T2: human ST2 (hST2, Interleukin-1 receptor-like 1 isoform A) on cells (human, UniProt Q01638 19-556)
T2 sequence: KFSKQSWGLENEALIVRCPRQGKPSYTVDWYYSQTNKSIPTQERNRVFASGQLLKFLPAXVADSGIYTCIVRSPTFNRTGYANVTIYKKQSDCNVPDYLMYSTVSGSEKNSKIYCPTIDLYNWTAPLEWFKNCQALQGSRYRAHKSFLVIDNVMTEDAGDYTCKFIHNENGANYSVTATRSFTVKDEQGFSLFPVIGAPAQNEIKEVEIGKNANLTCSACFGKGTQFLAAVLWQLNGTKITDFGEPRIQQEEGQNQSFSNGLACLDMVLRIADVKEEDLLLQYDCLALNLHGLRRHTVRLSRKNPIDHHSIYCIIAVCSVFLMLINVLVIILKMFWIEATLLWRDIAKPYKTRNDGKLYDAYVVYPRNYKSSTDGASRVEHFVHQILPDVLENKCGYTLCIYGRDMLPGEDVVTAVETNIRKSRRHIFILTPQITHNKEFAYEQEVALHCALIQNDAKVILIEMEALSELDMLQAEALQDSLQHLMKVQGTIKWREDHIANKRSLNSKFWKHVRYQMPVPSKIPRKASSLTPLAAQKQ

T3: recombinant protein containing hST2 extracellular domain with mouse antibody heavy chain Fc tag (hST2-ECD-mFc) (human)
T3 construct: Used for SPR and for ELISA of chimeric and humanized antibodies; also called human ST2 antigen
T3 chain: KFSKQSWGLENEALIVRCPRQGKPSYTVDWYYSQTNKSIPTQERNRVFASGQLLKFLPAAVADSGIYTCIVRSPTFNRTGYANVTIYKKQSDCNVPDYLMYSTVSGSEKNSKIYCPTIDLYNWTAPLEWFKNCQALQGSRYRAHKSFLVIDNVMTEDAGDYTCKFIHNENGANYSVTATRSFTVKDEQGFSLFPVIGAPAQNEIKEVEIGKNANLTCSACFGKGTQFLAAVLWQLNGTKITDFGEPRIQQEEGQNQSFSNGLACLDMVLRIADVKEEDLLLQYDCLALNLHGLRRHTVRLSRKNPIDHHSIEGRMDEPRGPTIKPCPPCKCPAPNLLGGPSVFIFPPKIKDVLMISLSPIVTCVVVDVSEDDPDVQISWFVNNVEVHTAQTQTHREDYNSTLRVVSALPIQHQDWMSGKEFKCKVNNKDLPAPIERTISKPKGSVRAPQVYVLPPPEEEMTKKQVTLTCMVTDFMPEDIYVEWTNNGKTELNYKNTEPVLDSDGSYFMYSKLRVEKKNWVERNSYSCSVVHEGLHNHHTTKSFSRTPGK


Legend:
[1] = target: T1, cynomolgus monkey ST2 antigen …; assay: SPR (Biacore T200), Cyno-ST2-his captured by anti-his antibody on CM5, antibody as analyte, 1:1 model
Experimental: (§1) The reaction signals were detected in real time using a Biacore instrument (Cytiva, BiacoreT200), and then an association-dissociation curve was obtained. After the completion of dissociation in each cycle, the biochip was regenerated with a regeneration solution for the next capture; the procedure was repeated until the affinity of the different antibodies for ST2 was determined. The acquired data were finally analyzed using the GE BIAevaluation software with a 1:1 (Langmuir) binding model to determine the association rate constants ka (kon) and the dissociation rate constants kd (koff), and the dissociation constants KD were given by KD = kd/ka. The determined affinity of the anti-ST2 antibody for human ST2 antigen (hST2-ECD-mFc), cynomolgus monkey ST2 antigen (Cyno-ST2-his, Sino biological, 90915-C08H) and the determined affinity of the anti-ST2 chimeric antibodies for ST2 were shown in Table 5.
(§2) The humanized antibodies hz31C81-1.1 (the amino acid sequence of the heavy chain set forth in SEQ ID NO: 75 and the amino acid sequence of the light chain set forth in SEQ ID NO: 81) and hz31C8-1.2 (the amino acid sequence of the heavy chain set forth in SEQ ID NO: 77 and the amino acid sequence of the light chain set forth in SEQ ID NO: 81) were subjected to affinity, binding, blocking and cell function analyses using the methods described in Example 4, Example 5, Example 6, Example 7, Example 8, Example 9 and Example 10. In the present disclosure, “hz” and “xi” denote humanized antibodies and chimeric antibodies, respectively; for example, “hz31C81-1.1” and “hz31C81-1.2” represent humanized 31C81-1.1 and 31C81-1.2 antibodies, and “xi31C8” represents a chimeric 31C8 antibody.

[2] = target: T2, human ST2 (hST2, Interleukin-1 …); assay: cell-based or functional assay
[3] = target: T3, recombinant protein containing hST2 …; assay: SPR (Biacore T200), hST2-ECD-mFc captured by anti-mouse IgG on CM5, antibody as analyte, 1:1 model
Experimental: as §1, §2

[4] = target: T3, recombinant protein containing hST2 …; assay: ELISA, plate coated with hST2-ECD-mFc, antibody heated at 72 °C for 5 min; antibody heated at 72° C. for 5 min (Heated column, not the unheated 0.1428 nM)
Experimental: The anti-ST2 antibodies were diluted with PBS buffer to a concentration of 1.5 mg/mL. After being treated at 72° C. for 5 min, the samples were assayed by ELISA for their binding activity for an antigen The ELISA procedure is as follows: A 96-well plate was coated with 2 µg/mL hST2-ECD-mFc as the antigen at 100 µL/well and incubated at 4° C. overnight. After the antigen not adsorbed was well washed off, the non-specific binding sites were blocked with a blocking buffer (PBST containing 1% bovine serum albumin). After the plate was washed three times with a washing buffer (PBST, PBS containing 0.05% (v/v) Tween 20), the anti-ST2 antibodies (serially diluted 3-fold from an initial concentration of 1.5 µg/mL to 8 concentrations) were added at 100 µL/well, and the plate was incubated at 37° C. for 1 h. […] After the plate was incubated at room temperature for 5 min, a stop solution (2 N H₂SO₄) was added to stop the reactions. The signals were read at 450 nm using a plate reader (PE, Envision). The data were analyzed using GraphPad Prism5, and the EC₅₀ values were calculated.

Row | Kd [1] | IC50, blocking of the IL33/ST2 signaling (NFκB luciferase reporter, HEK293T-hST2-NFκB-Luciferase cells) [2] | IC50, blocking of the IL33/ST2 signaling (NFκB luciferase reporter, KU812-NFκB-Luciferase cells naturally expressing hST2, 200 pM hIL33) [2] | Kd [3] | EC50 [4] | Binder
1 | 2.47 nM | 15.9 nM | 0.008 nM | 0.0836 nM | – | Humanized 31C8-1.1 (antibody, human IgG2, kappa, V domains shown, also called hz31C8-1.1; hz31C81-1.1) VH: EVQLVQSGAEVKKPGATVKISCKASGYIFIDSEMHWVQQAPGKGLEWMGAIDPETGDTVYAEKFQGRVTITADKSSSTAYMELSSLRSEDTAVYYCTGSTTDYYFAYWGQGTLVTVSS VL: DIQMTQSPSSLSASVGDRVTITCRSSKSLLHSNGIIYLYWYQQKPGKAPKLLIYQLSNLASGVPSRFSSSGSGTDFTLTISSLQPEDFATYYCAQNLELPFTFGQGTKVEIKR
2 | 5.27 nM | 20.4 nM | 0.006 nM | 0.145 nM | – | Humanized 31C8-1.2 (antibody, human IgG2, kappa, V domains shown, also called hz31C8-1.2; hz31C81-1.2) VH: QVQLVQSGAKVKKPGATVKISCKASGYIFIDSEMHWVQQAPGKGLEWMGAIDPETGDTVYAKKFKGRVTITADKSSSTAYMELSSLRSEDTAVYYCTGSTTDYYFAYWGQGTLVTVSS VL: DIQMTQSPSSLSASVGDRVTITCRSSKSLLHSNGIIYLYWYQQKPGKAPKLLIYQLSNLASGVPSRFSSSGSGTDFTLTISSLQPEDFATYYCAQNLELPFTFGQGTKVEIKR
3 | 0.069 nM | 84.3 nM | 0.047 nM | 0.128 nM | 1.06 nM | RG6149 (antibody Ab2 in CN104334582, prepared in-house) (antibody, human IgG2, kappa, V domains shown, Control anti-ST2 antibody) VH: EVQLVQSGAEVKKPGESLKISCKGSGYSFTNYWIGWVRQMPGKGLEWMGIIYPGNSDTRFSPSFQGQVTISADKSITTAYLQWSSLKASDTAMYYCARHGTSSDYYGLDVWGQGTTVTVSS VL: not shown
4 | 0.0923 nM | 29.2 nM | 0.111 nM | 0.0958 nM | – | GSK3772847 (antibody STLM208 in CN104411333, prepared in-house) (antibody, human IgG2, kappa, V domains shown, Control anti-ST2 antibody) VH: EVQLLESGGGLVQPGGSLRLSCAASGFTFSIYDMIWVRQAPGKGLEWVSSIRGEGGGTYYADSVKGRFTISRDNSKNTLYLQMNSLRAEDTAVYYCARDPWSTEGSFFVLDYWGQGTLVTVSS VL: EIVLTQSPATLSLSPGERATLSCRASQSVDDDLAWYQQKPGQAPRLLIYDASNRATGIPARFSGSGSGTDFTLTISSLEPEDFAVYYCQQYITAPLTFGQGTKVEIKR
5 | 1.62 nM | 15.6 nM | 0.016 nM | 0.129 nM | – | Chimeric 31C8 (antibody, human IgG2, kappa, V domains shown, also called xi31C8) VH: QVQLQQSGPELVRPGASVTLSCKASGYIFIDSEMHWVKQTPVHGLEWIGAIDPETGDTVYNQKFKGKATLTADKSSSTASMELSSLTSEDSAVYYCTGSTTDYYFAYWGQGTTLTVSS VL: DIVMTQAAFSNPVTLGTSASISCRSSKSLLHSNGIIYLYWYLQKPGQSPQLLIYQMSNLASGVPDRFSSSGSGTDFTLRISRVEAEDVGVYYCAQNLELPFTFGSGTKLEIKR

Source: patent US20230272086A1 (CHIA TAI TIANQING PHARMACEUTICAL GROUP, published 2023)
